For test [1], the system named is B16-OVA melanoma. The experiment in a line: B16-OVA melanoma, post-tumor treatment (immunization day 3 after tumor inoculation). The class given is in vivo, mouse. The settings on record: immunization three days after tumor inoculation, plus anti-PD-L1.
Method: C57BL/6J mice (n=8 mice per treatment) were injected s.c. with 2×10^5 B16-OVA melanoma cells on day 0. For pre-tumor treatment, mice were immunized i.m. with OVA (100 μg) mixed with vehicle or Diprovocim (10 mg/kg) or alum (2 mg/kg) on the same day prior to tumor injection. Mice received a booster immunization seven days later in which anti-PD-L1 (200 μg) was administered on days 3, 6 and 9 after tumor inoculation by i.p. injection. For post-tumor treatment, initial immunization was on day 3 after tumor inoculation, with a booster seven days later. Anti-PD-L1 (200 μg) was administered on days 3, 6, 9, 12, and 15 after tumor inoculation by i.p. injection. […] P values for tumor volume analysis apply to the final time point as indicated in graphs and were calculated by Student's t test. P values for survival analysis were calculated by Kaplan-Meier analysis. All results are representative of two independent studies.
For post-treatment, 10 mg/kg Diprovocim-1 or 2 mg/kg Alum with OVA (100 μg) was injected i.m. into mice on day 3 after tumor inoculation. Mice received a booster shot seven days after the first immunization. On day 3, 6, 9, 12 and 15 after tumor inoculation, mice were also injected i.p. with 200 μg anti-mPD-L1 in 100 μl saline.
Tumors were measured with a digital caliper (Fisher) and the tumor sizes were calculated using the following formula: volume=0.5×length×width^2. […]
In test [2] the test system is B16-OVA melanoma. The experiment in a line: B16-OVA melanoma, pre-tumor treatment (immunization on day of tumor inoculation). The class given is in vivo, mouse. Here is the method:
FIG. 4A through FIG. 4J illustrate inhibition of B16-OVA tumor growth by pre- or post-tumor treatment with Diprovocim-adjuvanted tumor vaccination and checkpoint blockade. FIG. 4A provides a schematic of pre- and post-tumor treatment protocols. C57BL/6J mice (n=8 mice per treatment) were injected s.c. with 2×10^5 B16-OVA melanoma cells on day 0. For pre-tumor treatment, mice were immunized i.m. with OVA (100 μg) mixed with vehicle or Diprovocim (10 mg/kg) or alum (2 mg/kg) on the same day prior to tumor injection. Mice received a booster immunization seven days later in which anti-PD-L1 (200 μg) was administered on days 3, 6 and 9 after tumor inoculation by i.p. injection. For post-tumor treatment, initial immunization was on day 3 after tumor inoculation, with a booster seven days later. Anti-PD-L1 (200 μg) was administered on days 3, 6, 9, 12, and 15 after tumor inoculation by i.p. injection. FIG. 4B through FIG. 4F illustrate pre-tumor treatment results. Tumor volume (FIG. 4B and FIG. 4D) and percent mouse survival (survivors/total mice) (FIG. 4C and FIG. 4E). […] FIG. 4G through FIG. 4J illustrate a comparison of pre-tumor (FIG. 4G and FIG. 4H) vs. post-tumor treatment (FIG. 4I and FIG. 4J). Tumor volume (FIG. 4G and FIG. 4I) and percent mouse survival (survivors/total mice) (FIG. 4H and FIG. 4J) are shown. P values for tumor volume analysis apply to the final time point as indicated in graphs and were calculated by Student's t test. P values for survival analysis were calculated by Kaplan-Meier analysis. All results are representative of two independent studies.
C57BL/6J mice (n=8) were injected s.c. with 2×10^5 B16-OVA melanoma cells on day 0. Anti-PD-L1 (200 μg) or mouse IgG2a isotype control antibody was administered on days 3, 6 and 9 after tumor inoculation by i.p. injection. FIG. 8A is a graph of tumor volume versus time and FIG. 8B is a graph showing percent mouse survival (survivors/total mice) versus time. The control values in both plots are shown above those for the anti-PD-L1 values where the two values diverge. […] Results are representative of two independent studies.
B16-OVA cells (B16F10 melanoma cells stably expressing chicken ovalbumin) were grown in DMEM containing 10% vol/vol FBS. A total of 2×10^5 B16-OVA cells in 100 μL PBS were injected s.c. into the right flank of 8-12 week old male C57BL/6J mice to establish tumors (n=8 mice per group). For pretreatment, 10 mg/kg Diprovocim-1 or 2 mg/kg alum with or without OVA (100 μg) was injected i.m. into mice on the same day as tumor inoculation (day 0). Mice received a booster shot seven days after the first immunization. On day 3, 6 and 9, some groups were injected i.p. with 200 μg checkpoint inhibitor (anti-mPD-L1, BioXcell) in 100 μl saline.
Tumors were measured with a digital caliper (Fisher) and the tumor sizes were calculated using the following formula: volume=0.5×length×width^2. Mice were sacrificed when the tumor length or width reached 2 cm.

Test [3] deals with OT-I CD8 T cells. The test is described as follows: Cross-priming of CD8 T cells (CD69 on OT-I CD8 T cells co-cultured with DCs of immunized mice). Format: in vivo, mouse. The following applies: DCs 24 hours after i.m. immunization, 24 hours co-culture. Here is the method:
C57BL/6J male mice were injected i.m. with 100 μg OVA mixed with vehicle or with 10 mg/kg Diprovocim (n=4 mice per treatment). 24 hours later, DCs from draining lymph nodes and spleen were purified by Mouse Pan Dendritic Cell Isolation Kit (Miltenyi Biotech). CD8 T cells from OT-I transgenic mice were purified by Mouse CD8+ T Cell Isolation Kit (Miltenyi Biotech). 3×10^5 DCs were co-cultured with 3×10^5 OT-I CD8 T cells in RPMI medium containing 10% vol/vol FBS and 1% vol/vol penicillin and streptomycin for 24 hours. Then, cells were collected and stained with anti-mouse CD3-FITC, anti-mouse CD8-BV510, and anti-mouse CD69-PE-CF594 (BioLegend) for 45 minutes. Then, the cells were washed twice with PBS. Stained cells were analyzed with an LSRII instrument and the flow cytometry data were analyzed using FlowJo software.

The test system of test [4] is OVA peptide-pulsed target cells. The experiment in a line: In vivo CTL killing assay. On the set-up: species or system mouse. The following applies: i.m. immunization, 100 μg OVA, Diprovocim 10 mg/kg; target cells i.v. day 7, read two days later.
The mark [5] stands for this setting: immunization on day of tumor inoculation, plus anti-PD-L1.

B1: OVA: EndoFit ovalbumin, Invivogen; immunogen, given mixed with vehicle when without adjuvant (protein, UniProt P01012 2-386, looked up)
Ovalbumin: GSIGAASMEFCFDVFKELKVHHANENIFYCPIAIMSALAMVYLGAKDSTRTQINKVVRFDKLPGFGDSIEAQCGTSVNVHSSLRDILNQITKPNDVYSFSLASRLYAEERYPILPEYLQCVKELYRGGLEPINFQTAADQARELINSWVESQTNGIIRNVLQPSSVDSQTAMVLVNAIVFKGLWEKAFKDEDTQAMPFRVTEQESKPVQMMYQIGLFRVASMASEKMKILELPFASGTMSMLVLLPDEVSGLEQLESIINFEKLTEWTSSNVMEERKIKVYLPRMKMEEKYNLTSVLMAMGITDVFSSSANLSGISSAESLKISQAVHAAHAEINEAGREVVGSAEAGVDAASVSEEFRADHPFLFCIKHIATNAVLFFGRCVSP
On to B1, for which the average survival time came out at 22 days in test [1] and 24 days in test [2] (setting [5]). In addition, the “mice died by 38 days after tumor inoculation” value in test [2] (setting [5]) is reported as 100%. For the same molecule, the “tumor growth rates and survival times compared with vehicle alone” value in test [2] (single agent, no anti-PD-L1, i.m. day 0 and booster day 7) was “similar”. The “activation (CD69 upregulation) of OT-I CD8 T cells by DCs of immunized mice” value in test [3] was “failed to induce CD69 expression”. For the same molecule, the target cells eliminated entry in test [4] is “about 10%”.
